Measurements as given in the supplement of paper PMC9112550, “Optimization of the antimicrobial peptide Bac7 by deep mutational scanning” (BMC Biology, 2022).

system: Escherichia coli TOP10; test: shrunken log2 fold change of peptide-encoding DNA abundance (4.5 h post-induction vs induction); higher = less antimicrobial activity (less host growth inhibition); conditions: time post-induction: 4.5 h; library: site-saturation at positions 5, 18, 19, 20
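Also: peptides expressed intracellularly from a pBAD plasmid library in pooled LB shake-flask culture, induced with 0.3% L-arabinose, DNA abundance read by NGS, three biological replicates, DESeq2 with apeglm shrinkage.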

| Sequence | shrunken log2 fold change |
| --- | --- |
| RRIRQRPPRLPRPRPRPEMFPRP | -0.118 |
| RRIRDRPPRLPRPRPRPPRRPRP | 0.635 |
| RRIRDRPPRLPRPRPRPSVIPRP | 0.0683 |
| RRIRDRPPRLPRPRPRPSHLPRP | -0.248 |
| RRIRYRPPRLPRPRPRPWRQPRP | -0.00152 |
| RRIRRRPPRLPRPRPRPYLMPRP | -0.146 |
| RRIRRRPPRLPRPRPRPWLVPRP | -0.0986 |
| RRIRTRPPRLPRPRPRPYGAPRP | -0.0628 |
| RRIRERPPRLPRPRPRPNSDPRP | -0.142 |
| RRIRYRPPRLPRPRPRPSNQPRP | -0.273 |
| RRIRERPPRLPRPRPRPHTKPRP | 0.0349 |
| RRIRHRPPRLPRPRPRPGKTPRP | -0.031 |
| RRIRARPPRLPRPRPRPDHCPRP | 0.063 |
| RRIRWRPPRLPRPRPRPSLLPRP | 0.0919 |
| RRIRDRPPRLPRPRPRPCTLPRP | -0.302 |
| RRIRIRPPRLPRPRPRPREMPRP | 0.00525 |
| RRIRYRPPRLPRPRPRPSFAPRP | -0.332 |
| RRIRNRPPRLPRPRPRPACMPRP | 0.0165 |
| RRIRERPPRLPRPRPRPQTKPRP | 0.0765 |
| RRIRFRPPRLPRPRPRPGQQPRP | -0.0159 |
| RRIRRRPPRLPRPRPRPKKSPRP | 0.237 |
| RRIRDRPPRLPRPRPRPQRRPRP | 0.255 |

| Sequence | shrunken log2 fold change |
| --- | --- |
| RRIRFRPPRLPRPRPRPAGVPRP | 0.172 |
| RRIRWRPPRLPRPRPRPILQPRP | 0.0247 |
| RRIRRRPPRLPRPRPRPSLSPRP | 2.85 |
| RRIRVRPPRLPRPRPRPYPMPRP | -0.299 |
| RRIRTRPPRLPRPRPRPGTGPRP | 0.257 |
| RRIRHRPPRLPRPRPRPVIEPRP | -0.0264 |
| RRIRRRPPRLPRPRPRPKCSPRP | 0.504 |
| RRIRFRPPRLPRPRPRPQPSPRP | 0.279 |
| RRIRIRPPRLPRPRPRPDHMPRP | -0.87 |
| RRIRLRPPRLPRPRPRPRCAPRP | 0.504 |
| RRIRCRPPRLPRPRPRPEEAPRP | 0.642 |
| RRIRGRPPRLPRPRPRPSETPRP | 0.223 |
| RRIRHRPPRLPRPRPRPAQYPRP | -0.0609 |
| RRIRERPPRLPRPRPRPTETPRP | -0.00327 |
| RRIRFRPPRLPRPRPRPMAHPRP | 0.0587 |
| RRIRKRPPRLPRPRPRPHETPRP | -0.0327 |
| RRIRDRPPRLPRPRPRPKGSPRP | -0.145 |
| RRIRSRPPRLPRPRPRPWYYPRP | -0.518 |
| RRIRTRPPRLPRPRPRPEEEPRP | 0.385 |
| RRIRIRPPRLPRPRPRPWMRPRP | -0.37 |
| RRIRQRPPRLPRPRPRPVLVPRP | 0.328 |
| RRIRLRPPRLPRPRPRPFMIPRP | -0.186 |

| Sequence | shrunken log2 fold change |
| --- | --- |
| RRIRWRPPRLPRPRPRPCDTPRP | -0.165 |
| RRIRMRPPRLPRPRPRPYYKPRP | -0.611 |
| RRIRNRPPRLPRPRPRPNSFPRP | -0.00469 |
| RRIRDRPPRLPRPRPRPLSTPRP | 0.377 |
| RRIRSRPPRLPRPRPRPPMVPRP | 0.131 |
| RRIRSRPPRLPRPRPRPFNTPRP | -0.257 |
| RRIRPRPPRLPRPRPRPKTDPRP | -0.0446 |
| RRIRDRPPRLPRPRPRPEMAPRP | 0.0683 |
| RRIRHRPPRLPRPRPRPEMYPRP | 0.000706 |
| RRIRPRPPRLPRPRPRPYRAPRP | -0.329 |
| RRIRSRPPRLPRPRPRPYFMPRP | -0.848 |
| RRIRTRPPRLPRPRPRPAQSPRP | 0.343 |
| RRIRYRPPRLPRPRPRPTAYPRP | -0.537 |
| RRIRERPPRLPRPRPRPPFKPRP | -0.0871 |
| RRIRMRPPRLPRPRPRPLYWPRP | 0.0465 |
| RRIRMRPPRLPRPRPRPRYRPRP | 0.307 |
| RRIRKRPPRLPRPRPRPAHAPRP | 1.11 |
| RRIRSRPPRLPRPRPRPYAHPRP | -0.131 |
| RRIRYRPPRLPRPRPRPRWDPRP | -0.0245 |
| RRIRFRPPRLPRPRPRPVPEPRP | 0.098 |
| RRIRLRPPRLPRPRPRPIMQPRP | -0.271 |
| RRIRMRPPRLPRPRPRPTGHPRP | 0.63 |

| Sequence | shrunken log2 fold change |
| --- | --- |
| RRIRDRPPRLPRPRPRPSFIPRP | -0.572 |
| RRIRLRPPRLPRPRPRPQLRPRP | -0.00627 |
| RRIRRRPPRLPRPRPRPVKCPRP | 0.23 |
| RRIRNRPPRLPRPRPRPSADPRP | 0.212 |
| RRIRGRPPRLPRPRPRPTMMPRP | 0.541 |
| RRIRQRPPRLPRPRPRPMSFPRP | 0.0381 |
| RRIRARPPRLPRPRPRPNVVPRP | -0.0083 |
| RRIRGRPPRLPRPRPRPLHFPRP | 0.339 |
| RRIRGRPPRLPRPRPRPRQSPRP | 0.647 |
| RRIRWRPPRLPRPRPRPGKHPRP | 0.0375 |
| RRIRSRPPRLPRPRPRPAACPRP | 0.222 |
| RRIRIRPPRLPRPRPRPPPLPRP | 0.302 |
| RRIRLRPPRLPRPRPRPRFMPRP | -0.244 |
| RRIRGRPPRLPRPRPRPLNWPRP | 0.0909 |
| RRIRSRPPRLPRPRPRPPQRPRP | 0.451 |
| RRIRSRPPRLPRPRPRPLTGPRP | 0.043 |
| RRIRYRPPRLPRPRPRPLTEPRP | -0.00518 |
| RRIRRRPPRLPRPRPRPQFAPRP | 0.0495 |
| RRIRHRPPRLPRPRPRPRQNPRP | 0.0341 |
| RRIRFRPPRLPRPRPRPKPVPRP | 0.727 |
| RRIRGRPPRLPRPRPRPEWTPRP | 1.27 |
| RRIRRRPPRLPRPRPRPKIFPRP | 0.0586 |

| Sequence | shrunken log2 fold change |
| --- | --- |
| RRIRERPPRLPRPRPRPPMLPRP | 1.29 |
| RRIRSRPPRLPRPRPRPSQIPRP | -0.0773 |
| RRIRSRPPRLPRPRPRPYPRPRP | -0.45 |
| RRIRKRPPRLPRPRPRPEFFPRP | 0.7 |
| RRIRSRPPRLPRPRPRPHYMPRP | -0.273 |
| RRIRKRPPRLPRPRPRPWWGPRP | 0.0849 |
| RRIRIRPPRLPRPRPRPKEEPRP | 0.0133 |
| RRIRTRPPRLPRPRPRPLGTPRP | -0.145 |
| RRIRKRPPRLPRPRPRPVRDPRP | 0.48 |
| RRIRSRPPRLPRPRPRPVHRPRP | -0.0285 |
| RRIRARPPRLPRPRPRPGIYPRP | -0.225 |
| RRIRVRPPRLPRPRPRPGYGPRP | 0.0756 |
| RRIRARPPRLPRPRPRPIKHPRP | -0.0409 |
| RRIRARPPRLPRPRPRPKWSPRP | 0.354 |
| RRIRYRPPRLPRPRPRPPPQPRP | 0.776 |
| RRIRSRPPRLPRPRPRPFYLPRP | -0.818 |
| RRIRNRPPRLPRPRPRPYFKPRP | -0.363 |
| RRIRPRPPRLPRPRPRPKWFPRP | 0.0432 |
| RRIRVRPPRLPRPRPRPIFLPRP | -0.157 |
| RRIRHRPPRLPRPRPRPCDDPRP | -0.0661 |
| RRIRLRPPRLPRPRPRPWSCPRP | -0.136 |
